Assay results: patent publication US20210346432A1 (Memorial Sloan Kettering, published 2021)
No end group written: not given here. *: point of attachment. Biotin = O=C1N[C@H]2[C@H](CS[C@H]2CCCCC(=O)*)N1

T1: biotinylated BCMA-Fc protein (human, UniProt Q02223 1-54, biotinylated (site not stated))
T1 construct: also called BCMA recombinant antigen; not shown: Fc part
T1 sequence: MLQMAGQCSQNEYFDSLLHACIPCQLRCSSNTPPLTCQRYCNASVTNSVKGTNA

T2: ET140-p27 (human, cysteine pairing not given here)
T2 construct: also called peptide 27
T2 peptide: Biotin-SGSGCSSNTPPLTCQRYCN

T3: ET140-p33 (human, cysteine pairing not given here)
T3 construct: also called peptide 33
T3 peptide: Biotin-SGSGPLTCQRYCNASVTNS

T4: ET140-p37 (human)
T4 construct: also called peptide 37
T4 peptide: Biotin-SGSGQRYCNASVTNSVKGT

T5: ET140-p28 (human, cysteine pairing not given here)
T5 construct: also called peptide 28
T5 peptide: Biotin-SGSGSSNTPPLTCQRYCNA

T6: ET140-p8 (human)
T6 construct: also called peptide 8
T6 peptide: Biotin-SGSGSQNEYFDSLLHACIP

T7: ET140-p19 (human, cysteine pairing not given here)
T7 construct: also called peptide 19
T7 peptide: Biotin-SGSGACIPCQLRCSSNTPP

T8: ET140-p30 (human, cysteine pairing not given here)
T8 construct: also called peptide 30
T8 peptide: Biotin-SGSGNTPPLTCQRYCNASV

T9: ET140-p12 (human, cysteine pairing not given here)
T9 construct: also called peptide 12
T9 peptide: Biotin-SGSGYFDSLLHACIPCQLR

T10: ET140-p31 (human, cysteine pairing not given here)
T10 construct: also called peptide 31
T10 peptide: Biotin-SGSGTPPLTCQRYCNASVT

T11: ET140-p11 (human, cysteine pairing not given here)
T11 construct: also called peptide 11; ET140-pll
T11 peptide: Biotin-SGSGEYFDSLLHACIPCQL

T12: ET140-p38 (human)
T12 construct: also called peptide 38
T12 peptide: Biotin-SGSGRYCNASVTNSVKGTN

T13: ET140-p1 (human)
T13 construct: also called peptide 1; ET140-pl
T13 peptide: Biotin-SGSGLQMAGQCSQNEYFDS

T14: ET140-p17 (human, cysteine pairing not given here)
T14 construct: also called peptide 17
T14 peptide: Biotin-SGSGLHACIPCQLRCSSNT

T15: ET140-p4 (human)
T15 construct: also called peptide 4
T15 peptide: Biotin-SGSGAGQCSQNEYFDSLLH

T16: ET140-p7 (human, cysteine pairing not given here)
T16 construct: also called peptide 7
T16 peptide: Biotin-SGSGCSQNEYFDSLLHACI

T17: ET140-p15 (human, cysteine pairing not given here)
T17 construct: also called peptide 15
T17 peptide: Biotin-SGSGSLLHACIPCQLRCSS

T18: ET140-p32 (human, cysteine pairing not given here)
T18 construct: also called peptide 32
T18 peptide: Biotin-SGSGPPLTCQRYCNASVTN

T19: ET140-p29 (human, cysteine pairing not given here)
T19 construct: also called peptide 29
T19 peptide: Biotin-SGSGSNTPPLTCQRYCNAS

T20: ET140-p21 (human, cysteine pairing not given here)
T20 construct: also called peptide 21
T20 peptide: Biotin-SGSGIPCQLRCSSNTPPLT

T21: ET140-p6 (human, cysteine pairing not given here)
T21 construct: also called peptide 6
T21 peptide: Biotin-SGSGQCSQNEYFDSLLHAC

T22: ET140-p13 (human, cysteine pairing not given here)
T22 construct: also called peptide 13
T22 peptide: Biotin-SGSGFDSLLHACIPCQLRC

T23: ET140-p10 (human, cysteine pairing not given here)
T23 construct: also called peptide 10
T23 peptide: Biotin-SGSGNEYFDSLLHACIPCQ


Key:
[1] = target: T1, biotinylated BCMA-Fc protein; test: SPR (BIAcore X100), biotinylated BCMA-Fc captured on Sensor Chip CAP, antibody injected, 1:1 Langmuir fit
Method: In brief, 50 μg/mL of modified streptavidin was immobilized onto a Sensor Chip CAP by flowing the Biotin CAPture Reagent through the flow cells at 2 μL/min for 5 minutes. 10 ug/mL biotinylated BCMA-Fc protein was loaded onto the flow cell at a rate of 30 μL/min for 3 minutes. Following the standard protocol for kinetics, a series of injection of ESK1 was performed between 0.6 and 15 μg/mL, each step consisting of a 3 minute injection at 30 μL/min and 3 minute disassociation. […] Kinetic constants were derived by the global fitting (1:1 Langmuir binding model) using BIAcore ×100 Evaluation Software (Version 2.0.1).

ET140-p27 = target: T2, ET140-p27; test: peptide ELISA on streptavidin plate, antibody 1 ug/mL
Method: (§1) The peptides were coated onto Streptavidin plates at 2 ug/mL in PBST (PBS+0.05% Tween-20). After washing and blocking with 3% BSA. […] “mIgG1” used in all Examples represents that the variable region is fully human and the Fc part is mouse IgG1. Then HRP anti-mouse IgG detection antibody was added to each well. Finally, the color was developed using TMB substrate. A450 was recorded for data analysis.

ET140-p33 = target: T3, ET140-p33; test: as above
Method: as §1

ET140-p37 = target: T4, ET140-p37; test: as above
Method: as §1

ET140-p28 = target: T5, ET140-p28; test: as above
Method: as §1

ET140-p8 = target: T6, ET140-p8; test: as above
Method: as §1

ET140-p19 = target: T7, ET140-p19; test: as above
Method: as §1

ET140-p30 = target: T8, ET140-p30; test: as above
Method: as §1

ET140-p12 = target: T9, ET140-p12; test: as above
Method: as §1

ET140-p31 = target: T10, ET140-p31; test: as above
Method: as §1

ET140-p11 = target: T11, ET140-p11; test: as above
Method: as §1

ET140-p38 = target: T12, ET140-p38; test: as above
Method: as §1

ET140-p1 = target: T13, ET140-p1; test: as above
Method: as §1

ET140-p17 = target: T14, ET140-p17; test: as above
Method: as §1

ET140-p4 = target: T15, ET140-p4; test: as above
Method: as §1

ET140-p7 = target: T16, ET140-p7; test: as above
Method: as §1

ET140-p15 = target: T17, ET140-p15; test: as above
Method: as §1

ET140-p32 = target: T18, ET140-p32; test: as above
Method: as §1

ET140-p29 = target: T19, ET140-p29; test: as above
Method: as §1

ET140-p21 = target: T20, ET140-p21; test: as above
Method: as §1

ET140-p6 = target: T21, ET140-p6; test: as above
Method: as §1

ET140-p13 = target: T22, ET140-p13; test: as above
Method: as §1

ET140-p10 = target: T23, ET140-p10; test: as above
Method: as §1

| Kd [1] [nM] | A450 (ET140-p27) | A450 (ET140-p33) | A450 (ET140-p37) | A450 (ET140-p28) | A450 (ET140-p8) | A450 (ET140-p19) | A450 (ET140-p30) | A450 (ET140-p12) | A450 (ET140-p31) | A450 (ET140-p11) | A450 (ET140-p38) | A450 (ET140-p1) | A450 (ET140-p17) | A450 (ET140-p4) | A450 (ET140-p7) | A450 (ET140-p15) | A450 (ET140-p32) | A450 (ET140-p29) | A450 (ET140-p21) | Binder | further results |
| --- | --- | --- | --- | --- | --- | --- | --- | --- | --- | --- | --- | --- | --- | --- | --- | --- | --- | --- | --- | --- | --- |
| 8.1 | 0.103 | 0.084 | 0.083 | 0.093 | 0.073 | 0.099 | 0.08 | 0.139 | 0.08 | 0.085 | 0.069 | 0.069 | 0.146 | 0.073 | 0.075 | 0.276 | 0.092 | 0.083 | 0.077 | ET140-204 mIgG1 (antibody, V domains shown, also called ET140-54 mIgG1; ET140-54) VH: EVQLVQSGAEMKKPGASLKLSCKASGYTFIDYYVYWMRQAPGQGLESMGWINPNSGGTNYAQKFQGRVTMTRDTSISTAYMELSRLRSDDTAMYYCARSQRDGYMDYWGQGTLVTVSS VL: QSALTQPASVSASPGQSIAISCTGTSSDVGWYQQHPGKAPKLMIYEDSKRPSGVSNRFSGSKSGNTASLTISGLQAEDEADYYCSSNTRSSTLVFGGGTKLTVLG | A450 (ET140-p6): 0.095; A450 (ET140-p13): 0.138; A450 (ET140-p10): 0.087 |
| 1.2 | 0.12 | 0.116 | 0.085 | 0.109 | 0.178 | 0.098 | 0.111 | 2.08 | 0.107 | 1.07 | 0.08 | 0.084 | 0.155 | 0.094 | 0.381 | 0.328 | 0.099 | 0.109 | 0.089 | ET140-153 mIgG1 (antibody, V domains shown, also called ET140-3 mIgG1; ET140-3) VH: QVQLVQSGAEVKKPGSSVKVSCKASGGTFSSYAISWVRQAPGQGLEWMGRIIPILGIANYAQKFQGRVTITADKSTSTAYMELSSLRSEDTAVYYCARGGYYSHDMWSEDWGQGTLVTVSS VL: LPVLTQPPSASGTPGQRVTISCSGRSSNIGSNSVNWYRQLPGAAPKLLIYSNNQRPPGVPVRFSGSKSGTSASLAISGLQSEDEATYYCATWDDNLNVHYVFGTGTKVTVLG | A450 (ET140-p6): 0.127; A450 (ET140-p13): 1.03; A450 (ET140-p10): 0.758 |
| 4.8 | 0.1 | 0.083 | 0.086 | 0.101 | 0.083 | 0.104 | 0.083 | 0.137 | 0.085 | 0.094 | 0.071 | 0.084 | 0.15 | 0.081 | 0.087 | 0.268 | 0.092 | 0.09 | 0.086 | ET140-174 mIgG1 (antibody, V domains shown, also called ET140-24 mIgG1; ET140-24) VH: EVQLVQSGAEVKKPGESLKISCKGSGYSFTSYWIGWVRQMPGKGLEWMGIIYPGDSDTRYSPSFQGHVTISADKSISTAYLQWSSLKASDTAMYYCARYSGSFDNWGQGTLVTVSS VL: not shown | A450 (ET140-p6): 0.105; A450 (ET140-p13): 0.143; A450 (ET140-p10): 0.115 |
